From patent US20210347900A1 (AstraZeneca / MedImmune, published 2021)
Substitutions are numbered along the chain they refer to. Names may count otherwise.

T1: Human CLEC-7A (Dectin-1) (human, UniProt Q9BXN2-2 66-201, limits assumed)
T1 construct: Bought protein; also called C-type lectin domain family 7 member A
T1 sequence (looked up): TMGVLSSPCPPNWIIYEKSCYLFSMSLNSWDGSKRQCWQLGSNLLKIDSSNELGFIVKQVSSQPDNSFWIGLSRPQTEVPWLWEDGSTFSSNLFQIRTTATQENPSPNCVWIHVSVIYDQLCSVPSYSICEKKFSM

T2: Human CLEC-4L (DC-SIGN) (human, UniProt Q9NNX6 62-404)
T2 construct: Bought protein; also called C-type lectin domain family 4 member L
T2 sequence (looked up): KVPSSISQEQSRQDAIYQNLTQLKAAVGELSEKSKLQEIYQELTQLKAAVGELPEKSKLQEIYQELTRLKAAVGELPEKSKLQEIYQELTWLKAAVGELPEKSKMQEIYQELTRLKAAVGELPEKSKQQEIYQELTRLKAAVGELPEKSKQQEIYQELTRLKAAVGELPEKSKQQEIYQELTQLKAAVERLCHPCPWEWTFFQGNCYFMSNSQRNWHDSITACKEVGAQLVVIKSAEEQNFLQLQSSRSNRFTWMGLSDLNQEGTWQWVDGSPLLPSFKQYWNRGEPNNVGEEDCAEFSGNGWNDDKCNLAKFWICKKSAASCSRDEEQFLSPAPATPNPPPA

T3: Human SR-A1 (MSR) (human, UniProt P21757 77-451)
T3 construct: Bought protein; also called Macrophage scavenger receptor types I and II
T3 sequence (looked up): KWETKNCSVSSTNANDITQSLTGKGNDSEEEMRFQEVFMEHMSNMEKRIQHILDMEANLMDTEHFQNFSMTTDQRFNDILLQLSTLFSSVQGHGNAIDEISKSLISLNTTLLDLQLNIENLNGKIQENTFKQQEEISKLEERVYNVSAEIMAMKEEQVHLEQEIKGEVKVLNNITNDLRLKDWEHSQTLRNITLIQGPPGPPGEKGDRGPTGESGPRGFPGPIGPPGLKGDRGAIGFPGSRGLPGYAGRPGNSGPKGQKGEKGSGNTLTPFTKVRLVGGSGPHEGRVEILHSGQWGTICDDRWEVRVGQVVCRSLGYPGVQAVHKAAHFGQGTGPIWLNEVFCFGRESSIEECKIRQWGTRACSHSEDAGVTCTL

T4: Human CLEC-1A (human, UniProt Q8NC01 74-280, limits assumed)
T4 construct: Bought protein; also called C-type lectin domain family 1 member A
T4 sequence (looked up): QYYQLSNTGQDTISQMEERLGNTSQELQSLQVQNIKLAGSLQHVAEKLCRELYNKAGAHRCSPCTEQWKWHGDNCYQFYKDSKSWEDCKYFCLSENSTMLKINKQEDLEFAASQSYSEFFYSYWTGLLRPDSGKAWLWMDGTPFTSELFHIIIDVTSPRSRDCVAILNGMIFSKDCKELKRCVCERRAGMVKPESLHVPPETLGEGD

B1: LX6960073_G82bS_gl IgG1-TM (antibody, V domains shown)
VH: EVQLVESGGGLVQPGRSLRLSCAASGFTSDDYAMHWVRQAPGKGLEWVSGISWNSGSIGYADSVKGRFTISRDNAKNSLYLQMNSLRAEDTAVYYCAREGSWNYDALDIWGQGTMVTVSS
VL: QSALTQPASVSGSPGQPITISCTGTSSDVGGYNYVSWYQQHPGKAPKLMIYDVSKRPSGVSNRFSGSKSGNTASLTISGLQAEDEADYYCMGGMGRSTNWVFGGGTKLTVL
notes: Whole human IgG1-TM, germlined, with heavy chain G82bS (Kabat); also called LOX10696_73
B2: LX5140110 IgG1-TM (antibody, V domains shown)
VH: QVQLVQSGAEVKKPGASVKVSCKVSGYTLTELSMHWVRQAPGKGLEWMGGFDPEDFKYHTHQKFQGRVTMTEDTSTDTAYMELSSLRSEDTAVYYCALVWGTQGKGVRGWDYYYGMDVWGQGTTVTVSS
VL: QSVVTQPPSVSGAPGQRVTISCTGSSSNIGAGYDVHWYQQLPGTAPKLLIYGNSNRPSGVPDRFSGSKSGTSASLAITGLQAEDEADYYCQSYDSSLSGWVFGGGTKLTVL
notes: Whole human IgG1-TM (L234F/L235E/P331S); also called LOX514110; LOX514_110
B3: LX6960073_gl IgG1-TM (antibody, V domains shown)
VH: B1 VH with S85G
VL: B1 VL
notes: Whole human IgG1-TM, germlined
B4: LX5140093_N>D IgG1-TM (antibody, V domains shown)
VH: B2 VH with F56W, K57A, T60Q, H61A, L98T, V99P, W100D, T102Q
VL: B2 VL with L97H, S98R, G99A, V101A
notes: Whole human IgG1-TM; Heavy chain N96D (Kabat) variant of LX5140093; also called LX5140093_D
B5: LX5140092_N>D IgG1-TM (antibody, V domains shown)
VH: B2 VH with F56W, T60L, H61S, L98T, V99P, W100D, Q103H, G104Q, K105G
VL: B2 VL
notes: Whole human IgG1-TM; Heavy chain N96D (Kabat) variant of LX5140092; also called LX5140092_D
B6: LX5140108 IgG1-TM (antibody, V domains shown)
VH: B2 VH with F56W, K57S, Y58N, T60V, H61S, A97L, L98T, V99S, W100T, T102R
VL: B2 VL
notes: Whole human IgG1-TM (L234F/L235E/P331S)

Biological target: T5, human LOX1 on cells (human LOX1 transfected CHO TREX cells) (human, UniProt P78380 1-273)
T5 construct: whole, on cells; also called hLOX1 transfected cells; hLOX1 CHO
Assay: competition with DyLight 649 AGE-BSA on hLOX1 CHO TREX cells (FMAT), mean

IC50 | Binder
0.0177 nM | B1
0.0207 nM | B2

Biological target: T6, human LOX1 SNP K167N variant on cells (K167N SNP transfected CHO TREX cells) (human, UniProt P78380 1-273)
T6 construct: whole, on cells; also called hLOX1 K167N; K167N hLOX1 CHO
Assay: competition with DyLight 649 oxLDL on K167N hLOX1 CHO TREX cells (FMAT), mean

IC50 | Binder
0.105 nM | B1
0.492 nM | B2

Biological target: T5, human LOX1 on cells (human LOX1 …)
Assay: competition with DyLight 649 oxLDL on hLOX1 CHO TREX cells (FMAT), mean; mean of n = 3

IC50 | Binder
0.105 nM | B2

Biological target: T5, human LOX1 on cells (human LOX1 …)
Assay: cell-based or functional assay

ROS ASSAY (IC50, mean) | oxLDL/hLOX1 CHO Internalisation (IC50, mean) | Binder
2.21 nM | 0.38 nM | B1
1.98 nM | 0.312 nM | B2

Biological target: T7, cynomolgus LOX1-(FlagHis) extracellular domain (cynomolgus monkey, UniProt A0A2K5VQ73 76-291)
T7 construct: extracellular domain; Made in HEK293 EBNA cells; also called cynoLOX1; cyLOX
Assay: Biacore, antibody captured on protein G, LOX1 ECD as analyte

Kd | koff | kon | Binder
0.154 nM | 0.000168 s⁻¹ | 1.09e+06 M⁻¹ s⁻¹ | B2

Biological target: T8, Human CLEC-1B (CLEC-2) (human, UniProt Q9P126 58-229, limits assumed)
T8 construct: Bought protein; also called C-type lectin domain family 1 member B
Assay: IgG binding ELISA on coated antigen, absorbance at 450 nm;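 note: specificity panel of related human receptors, coated alongside human LOX1 as the binding positive control, with an isotype human IgG1-TM antibody setting the nonspecific background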

T8 sequence (Q9P126 58-229 limits assumed): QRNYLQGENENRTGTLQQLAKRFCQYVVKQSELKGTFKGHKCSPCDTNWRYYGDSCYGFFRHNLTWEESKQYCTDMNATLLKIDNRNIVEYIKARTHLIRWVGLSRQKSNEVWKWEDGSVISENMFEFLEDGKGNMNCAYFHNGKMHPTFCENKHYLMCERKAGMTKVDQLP

binding result | Binder
no binding | B3
no binding | B1
no binding | B2
no binding | B4
no binding | B5
no binding | B6

Biological target: T1, Human CLEC-7A (Dectin-1)
Assay: as above

binding result | Binder
no binding | B3
no binding | B1
no binding | B2
no binding | B4
no binding | B5
no binding | B6

Biological target: T2, Human CLEC-4L (DC-SIGN)
Assay: as above

binding result | Binder
no binding | B3
no binding | B1
no binding | B2
no binding | B4
no binding | B5
no binding | B6

Biological target: T3, Human SR-A1 (MSR)
Assay: as above

binding result | Binder
no binding | B3
no binding | B1
no binding | B2
no binding | B4
no binding | B5
no binding | B6

Biological target: T4, Human CLEC-1A
Assay: as above

binding result | Binder
no binding | B3
no binding | B1
no binding | B2
no binding | B4
no binding | B5
no binding | B6

Biological target: T9, Human SR-B3 (CD36) (human, UniProt P16671 30-439)
T9 construct: Bought protein; also called Platelet glycoprotein 4
Assay: as above

T9 sequence (P16671 30-439 limits assumed): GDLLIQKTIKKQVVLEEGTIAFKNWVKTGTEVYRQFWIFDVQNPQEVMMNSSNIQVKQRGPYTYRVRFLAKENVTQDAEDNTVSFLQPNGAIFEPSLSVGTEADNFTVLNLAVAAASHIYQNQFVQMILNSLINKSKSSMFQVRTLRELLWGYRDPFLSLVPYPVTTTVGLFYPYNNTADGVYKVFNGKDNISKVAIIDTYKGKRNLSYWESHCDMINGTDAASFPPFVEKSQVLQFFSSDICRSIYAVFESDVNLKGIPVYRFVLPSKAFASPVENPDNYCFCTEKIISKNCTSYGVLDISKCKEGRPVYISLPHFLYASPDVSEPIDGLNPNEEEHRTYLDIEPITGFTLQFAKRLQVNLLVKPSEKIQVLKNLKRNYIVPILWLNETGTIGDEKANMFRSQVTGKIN

binding result | Binder
no binding | B3
no binding | B1
no binding | B2
no binding | B4
no binding | B5
no binding | B6

Biological target: T5, human LOX1 on cells (human LOX1 …)
Assay: competition with DyLight 649 AGE-BSA on human LOX1 CHO TREX cells, FMAT

IC50 (read off the curve) | Binder
~0.02 nM | B1

Biological target: T10, recombinant human LOX1 (R&D Systems) (human, UniProt P78380 61-273)
Assay: competition with biotin CRP on plate-bound recombinant human LOX1, DELFIA

IC50 (read off the curve) | Binder
~3 nM | B1
~5 nM | B2

Biological target: T6, human LOX1 SNP K167N variant on cells …
Assay: competition with DyLight 649 oxLDL on human LOX1 K167N CHO TREX cells, FMAT

IC50 (read off the curve) | Binder
~0.3 nM | B1
~0.4 nM | B2

Biological target: T11, mouse LOX1-(FlagHis) extracellular domain (mouse, UniProt Q9EQ09 55-363)
T11 construct: extracellular domain
Assay: IgG binding ELISA on coated antigen, europium anti-human IgG detection

T11 sequence (Q9EQ09 55-363): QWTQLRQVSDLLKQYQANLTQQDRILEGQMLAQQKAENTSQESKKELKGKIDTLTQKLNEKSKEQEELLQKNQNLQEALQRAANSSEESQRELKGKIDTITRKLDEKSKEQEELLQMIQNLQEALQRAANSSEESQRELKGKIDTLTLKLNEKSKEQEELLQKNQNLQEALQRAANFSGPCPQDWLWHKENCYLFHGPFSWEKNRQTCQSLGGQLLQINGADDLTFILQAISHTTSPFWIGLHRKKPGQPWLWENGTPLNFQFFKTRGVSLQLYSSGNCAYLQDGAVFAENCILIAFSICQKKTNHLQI

Binder | binding result
B3 | no binding (tested: 10 µg/mL (single concentration))
B1 | no binding (tested: 10 µg/mL (single concentration))
B2 | no binding (tested: 10 µg/mL (single concentration))
B4 | no binding (tested: 10 µg/mL (single concentration))
B5 | no binding (tested: 10 µg/mL (single concentration))
B6 | no binding (tested: 10 µg/mL (single concentration))

Biological target: T12, rabbit LOX1-(FlagHis) extracellular domain (rabbit, UniProt Q9XTA8 55-274)
T12 construct: extracellular domain
Assay: as above

T12 sequence (Q9XTA8 55-274): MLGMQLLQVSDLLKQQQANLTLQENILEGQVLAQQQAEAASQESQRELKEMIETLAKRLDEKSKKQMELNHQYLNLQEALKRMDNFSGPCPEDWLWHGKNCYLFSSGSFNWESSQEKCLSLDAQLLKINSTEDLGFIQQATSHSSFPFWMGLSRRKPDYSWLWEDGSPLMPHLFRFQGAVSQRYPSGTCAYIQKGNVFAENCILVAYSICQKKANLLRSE

Binder | binding result
B3 | no binding (tested: 10 µg/mL (single concentration))
B1 | no binding (tested: 10 µg/mL (single concentration))
B2 | binds
B4 | no binding (tested: 10 µg/mL (single concentration))
B5 | binds
B6 | binds

Biological target: T13, rat LOX1-(FlagHis) extracellular domain (rat, UniProt O70156 55-364)
T13 construct: extracellular domain
Assay: as above

T13 sequence (O70156 55-364): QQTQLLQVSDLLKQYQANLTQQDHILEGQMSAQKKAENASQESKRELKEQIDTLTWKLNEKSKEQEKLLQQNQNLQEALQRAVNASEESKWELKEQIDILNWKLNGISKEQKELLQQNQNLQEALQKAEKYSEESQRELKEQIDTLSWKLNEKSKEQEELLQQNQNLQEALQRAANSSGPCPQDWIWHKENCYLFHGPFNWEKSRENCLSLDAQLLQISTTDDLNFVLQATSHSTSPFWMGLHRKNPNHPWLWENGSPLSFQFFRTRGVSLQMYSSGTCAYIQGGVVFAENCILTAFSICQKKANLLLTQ

Binder | binding result
B3 | no binding (tested: 10 µg/mL (single concentration))
B1 | no binding (tested: 10 µg/mL (single concentration))
B2 | no binding (tested: 10 µg/mL (single concentration))
B4 | no binding (tested: 10 µg/mL (single concentration))
B5 | no binding (tested: 10 µg/mL (single concentration))
B6 | no binding (tested: 10 µg/mL (single concentration))

Biological target: T10, recombinant human LOX1 (R&D Systems)
Assay: competition with biotin CRP on immobilised recombinant hLOX1 (DELFIA), mean

IC50 | Binder
3 nM | B1
5.02 nM | B2

Biological target: T5, human LOX1 on cells (human LOX1 …)
Assay: competition with DyLight 649 oxLDL on hLOX1 CHO TREX cells (FMAT), mean

IC50 | Binder
0.02 nM | B1

Biological target: T5, human LOX1 on cells (human LOX1 …)
Assay: competition with DyLight 649 oxLDL on human LOX1 CHO TREX cells, FMAT

IC50 (read off the curve) | Binder
~0.8 nM | B1
~1 nM | B2
